Measured values taken from patent US20250346669A1 (DEUTSCHES KREBSFORSCHUNGSZENTRUM STIFTUNG DES FFENTLICHEN …, published 2025).

Key:
[1] = target: T1, human prostate specific membrane antigen (PSMA) (human, UniProt Q04609 1-750); test: flow cytometry on PSMA-transfected Sp2/0 cells
T1 construct: whole, on cells; also called PMSA; FOLH1

[2] = target: T1, human prostate specific membrane …; test: flow cytometry on PSMA-expressing 22RV1 cells
Protocol: To this end, the cells were incubated with the indicated antibodies in 96 well plates for 30-45 min at 4° C. Upon incubation cells were washed and incubated with a secondary PE-goat-anti-human FC-γ specific fragment (Jackson ImmunoResearch). Cells were analyzed on a FACSCalibur (BD Biosciences).

[3] = target: T1, human prostate specific membrane …; test: in vivo biodistribution of radioisotope labeled CC-1 in mice with 22Rv1 (PSMA positive) or DU145 (PSMA negative) tumors

B1: murine antibody 10B3 (antibody, IgG2b, V domains shown)
VH: QVQLQESGGGLVKPGGSLKLSCAASGFTFSDFYMYWVRQTPEKRLEWVATISDGGGYTSYPDSVKGRFTISRDIAKNNLYLQMNSLKSEDTAKYYCARGLWLRDALDYWGQGTSVTVSS
VL: EIVLTQSPITMAAFLGERITITCSASSSISSNYLHWYQQKPGFSPKLLIYRTSNLASGVPIRFSGSGSGTSYSLTIGTMEAEDVATYYCQQGSYIPFTFGSGTKLEIKR
notes: Mouse hybridoma antibody, isotype IgG2b/kappa; also called mu 10B3; m10B3
Question: Does B1 bind [1]?
Answer: binds

B2: PSMA (humanized h10B3) x CD3 (murine OKT3) bispecific Fabsc format antibody molecule (bispecific antibody, IgG1)
heavy: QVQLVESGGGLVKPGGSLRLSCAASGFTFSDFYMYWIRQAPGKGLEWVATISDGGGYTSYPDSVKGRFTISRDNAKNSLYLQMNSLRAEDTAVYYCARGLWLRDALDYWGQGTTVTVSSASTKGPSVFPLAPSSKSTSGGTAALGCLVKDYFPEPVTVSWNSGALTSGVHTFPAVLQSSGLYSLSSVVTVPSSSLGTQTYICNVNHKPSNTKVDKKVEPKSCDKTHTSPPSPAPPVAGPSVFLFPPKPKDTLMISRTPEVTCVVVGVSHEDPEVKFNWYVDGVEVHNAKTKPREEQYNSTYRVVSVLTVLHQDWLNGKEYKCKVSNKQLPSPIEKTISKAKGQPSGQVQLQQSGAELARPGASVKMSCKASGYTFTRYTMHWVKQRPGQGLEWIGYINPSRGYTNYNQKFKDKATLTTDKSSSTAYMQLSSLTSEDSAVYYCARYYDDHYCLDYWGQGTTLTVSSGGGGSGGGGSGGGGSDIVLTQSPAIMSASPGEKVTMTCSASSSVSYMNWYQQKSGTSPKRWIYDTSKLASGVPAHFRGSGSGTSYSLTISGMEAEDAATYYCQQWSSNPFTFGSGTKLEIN
light: EIVLTQSPATLSLSPGERATLSCSASSSISSNYLHWYQQKPGQAPRLLIYRTSNLASGIPARFSGSGSGTDYTLTISRLEPEDFAVYYCQQGSYIPFTFGQGTKLEIKRTVAAPSVFIFPPSDEQLKSGTASVVCLLNNFYPREAKVQWKVDNALQSGNSQESVTEQDSKDSTYSLSSTLTLSKADYEKHKVYACEVTHQGLSSPVTKSFNRGEC
notes: Heavy chain: h10B3 VH, IgG1 CH1, hinge, modified CH2, beginning of CH3, murine OKT3 scFv; also called h10B3xOKT3 Fabsc
Question: Does B2 bind [2]?
Answer: binds

B3: PSMA (humanized h10B3) x CD3 (humanized hUCHT1) bispecific IgGsc format antibody molecule (bispecific antibody)
heavy: QVQLVESGGGLVKPGGSLRLSCAASGFTFSDFYMYWIRQAPGKGLEWVATISDGGGYTSYPDSVKGRFTISRDNAKNSLYLQMNSLRAEDTAVYYCARGLWLRDALDYWGQGTTVTVSSASTKGPSVFPLAPSSKSTSGGTAALGCLVKDYFPEPVTVSWNSGALTSGVHTFPAVLQSSGLYSLSSVVTVPSSSLGTQTYICNVNHKPSNTKVDKKVEPKSCDKTHTCPPCPAPPVAGPSVFLFPPKPKDTLMISRTPEVTCVVVGVSHEDPEVKFNWYVDGVEVHNAKTKPREEQYNSTYRVVSVLTVLHQDWLNGKEYKCKVSNKQLPSPIEKTISKAKGQPREPQVYTLPPSRDELTKNQVSLTCLVKGFYPSDIAVEWESNGQPENNYKTTPPVLDSDGSFFLYSKLTVDKSRWQQGNVFSCSVMHEALHNHYTQKSLSLSPGKSGDIQMTQSPSSLSASVGDRVTITCRASQDIRNYLNWYQQKPGKAPKLLIYYTSRLESGVPSRFSGSGSGTDYTLTISSLQPEDFATYYCQQGNTLPWTFGQGTKVEIKGGGGSGGGGSGGGGSEVQLVESGGGLVQPGGSLRLSCAASGYSFTGYTMNWVRQAPGKGLEWVALINPYKGVSTYNQKFKDRFTISVDKSKNTAYLQMNSLRAEDTAVYYCARSGYYGDSDWYFDVWGQGTLVTVSS
light: EIVLTQSPATLSLSPGERATLSCSASSSISSNYLHWYQQKPGQAPRLLIYRTSNLASGIPARFSGSGSGTDYTLTISRLEPEDFAVYYCQQGSYIPFTFGQGTKLEIKRTVAAPSVFIFPPSDEQLKSGTASVVCLLNNFYPREAKVQWKVDNALQSGNSQESVTEQDSKDSTYSLSSTLTLSKADYEKHKVYACEVTHQGLSSPVTKSFNRGEC
notes: also called CC-1; PSMAxCD3 (h10B3xUCHT1)-IgGsc
Question: Does B3 bind [3]?
Answer: binds
